The chains are these.
B1: gp100 peptide G10-5 (peptide)
peptide: VLYRYGSFSV
modifications: not checked
B2: tyrosinase peptide T9369 (peptide)
peptide: YMNGTMSQV
modifications: not checked
B3: gp100 peptide G10-4 (peptide)
peptide: LLDGTATLRL
modifications: not checked
B4: G9-154-2M (peptide)
peptide: KMWGQYWQV
modifications: not checked
B5: G9-154-3F (peptide)
peptide: KTFGQYWQV
modifications: not checked
B6: G9-154-1Y (peptide)
peptide: YTWGQYWQV
modifications: not checked
B7: G9-154-1F (peptide)
peptide: FTWGQYWQV
modifications: not checked
B8: G9-154-1L (peptide)
peptide: LTWGQYWQV
modifications: not checked
B9: G9-154-1W2L (peptide)
peptide: WLWGQYWQV
modifications: not checked
B10: G9-154-1F2L (peptide)
peptide: FLWGQYWQV
modifications: not checked
B11: G9-154-1L2L (peptide)
peptide: LLWGQYWQV
modifications: not checked
B12: G9-154-1W (peptide)
peptide: WTWGQYWQV
modifications: not checked
B13: G9-209-3M (peptide)
peptide: ITMQVPFSV
modifications: not checked
B14: G9-154-1A2L (peptide)
peptide: ALWGQYWQV
modifications: not checked
B15: G9-154-2L (peptide)
peptide: KLWGQYWQV
modifications: not checked
B16: G9-209-2L3Y (peptide)
peptide: ILYQVPFSV
modifications: not checked
B17: G9-154-3Y (peptide)
peptide: KTYGQYWQV
modifications: not checked
B18: G9-154-1Y2L (peptide)
peptide: YLWGQYWQV
modifications: not checked
B19: G9-154-1A (peptide)
peptide: ATWGQYWQV
modifications: not checked
B20: G9-209-2L3S (peptide)
peptide: ILSQVPFSV
modifications: not checked
B21: G9-154-2I (peptide)
peptide: KIWGQYWQV
modifications: not checked

This note sets out measurements from patent publication US7612044.

For one test, the target named is T1, HLA-A2.1 (heavy chain with human beta 2-microglobulin) (human). Nature of the test: IC50 of standard HBc18-27 peptide ([…] nM) / IC50 of sample peptide, same competition assay.
In the case of B1, the Ratio to Standard came out at 0.38.

As to B2, the Ratio to Standard was 0.13.

In the case of B3, the Ratio to Standard was 0.01.

The next test has as its target T1, HLA-A2.1 (heavy chain with human beta …). Nature of the test: competition with 5 nM radiolabeled HBc18-27 for HLA-A2.1 + b2m, gel filtration.
By IC50 is commonly meant the point on the concentration scale where inhibition reaches its midpoint. On to B4, for which the IC50 turned out to be 6.5 nM.

Take B5: the half-maximal inhibitory concentration (IC50) stood at 21 nM.

As to B6, the IC50 was found to be 2.5 nM.

With B7, the IC50 worked out at 1.6 nM.

As for B8, the IC50 worked out at 3.4 nM.

B9: the 50% inhibitory concentration (IC50) worked out at 2.8 nM.

Turning to B10, the IC50 was found to be 2.6 nM.

As to B11, the IC50 was found to be 1.6 nM.

In the case of B12, the IC50 came out at 60 nM.

Consider B13, for which the half-inhibitory concentration (IC50) was 40 nM.

With B14, the concentration for half-maximal inhibition (IC50) was determined as 2.3 nM.

On to B15, for which the concentration for half-maximal inhibition (IC50) is 2 nM.

For the molecule B16, the IC50 came out at 5 nM.

As to B17, the half-inhibitory concentration (IC50) turned out to be 30 nM.

Consider B18, for which the IC50 was 1.7 nM.

With B19, the IC50 was determined as 5.2 nM.

On to B20, for which the IC50 worked out at 20 nM.

B21: the IC50 came out at 3 nM.

For another test the target is unchanged. Nature of the test: competition with radiolabeled HBc18-27 for soluble HLA-A2.1 + b2m, gel filtration. (In general: Size exclusion chromatography separates by hydrodynamic size, large species first.)
As to B1, the 50% inhibitory concentration (IC50) was determined as 13 nM.

Turning to B2, the 50% inhibitory concentration (IC50) was found to be 40 nM.

For B3, the IC50 was 483 nM.
